US20140322161A1, “ANTI-IL-6 VACCINE COMPOSITION” (PEPTINOV SAS, priority 2011, published 2014)
Bridges are numbered along the chain shown (N, C = ends). BDB = bisdiazonium-benzidine, coupling agent to KLH

Key:
[1] = target: T1, hIL-6 (Homo sapiens, UniProt P05231); test: Human IL-6 neutralization test on HEK293 cells (hIL-6 receptor, SEAP reporter) with purified IgGs from immunized rabbits; assay type: cell-based; conditions: purified IgGs from rabbits immunized with 100 μg of the peptide
Description: New Zealand rabbits free from specific pathogenic organisms (n=1 per peptide) were immunized with 100 μg of peptides hP1, hP2, hP3, hP4 and hP6 derived from human IL-6 by five immunizations with CFA/IFA on D0, D14, D28, D56 and J70. The neutralizing ability of the purified IgGs, derived from the serum of each rabbit, was tested in a human IL-6 neutralization test. This test is carried out on HEK293 cells (Human Embryonic Kidney cells) transfected with the gene encoding the human IL-6 receptor and the secreted embryonic alkaline phosphatase (SEAP) reporter gene (Supplier: Invivogen). The latter is then secreted in a dose-dependent manner in response to the human IL-6.
Plating (D0): seed a flat-bottom 96-well plate, treated for cell culture with 50,000 cells per well in 100 μL of neutralization medium. (DMEM 4.5 g/L glucose, 10% v/v FCS, 2 mM L-Glutamine, 100 U/mL Penicillin/Streptomycin, 100 μg/mL of Normocin).
In parallel a so-called “pre-incubation” plate is prepared with the desired concentration of human IL-6, rabbit antibodies and commercial anti-hIL-6 antibodies used as a positive control, all in a final volume of 200 μL of neutralization medium.
The pre-incubation plate is left at 37° C. for 2 hours. 100 μL per well is then transferred to the corresponding wells of the plate containing the cells, then the latter is incubated with 5% CO2 at 37° C. for 24 hours.
Development (D1): Fill a flat-bottom 96-well plate with 180 μL per well of QUANTI-Blue (InVivoGen, CA, USA). Add 20 μL of supernatant from the plate treated with IL-6. Incubate with 5% CO2 at 37° C. for 3 hours. Determine the quantity of secreted alkaline phosphatase using a spectrophotometer set at 620 nm.

[2] = target: T1, hIL-6; test: ELISA of sera from Cynomolgus monkeys immunized with hP2 for anti hIL-6 antibodies; assay type: in vivo, Cynomolgus monkey
Description: Four Cynomolgus monkeys were immunized intra-muscularly at day 0 with 150 μg of the cyclized hP2 peptide derived from hIL-6 previously described coupled to the protein carrier KLH, and then emulsified with the ISA51 adjuvant (Seppic).
Boosts were performed at d15, d30, d45 with an additional boost at d76. Blood samples were collected every two weeks until the end of the experiment (d120). These sera were tested in ELISA to evaluate the production of anti hIL-6 antibodies. A control group of four monkeys immunized with KLH only was used.

[3] = tested on: Cynomolgus monkeys; test: Delayed-type hypersensitivity against tetanus toxoid in immunized Cynomolgus monkeys; assay type: in vivo, Cynomolgus monkey; conditions: tetanus toxoid challenge at d90, compared to the KLH group, FIG. 8
Description: Briefly, the TTx vaccine (Sanofi-Pasteur, solution of 0.5 ml comprising 40 IU of Tetanus Toxoid and 0.6 mg of aluminium hydroxide) was administered intramuscularly at d59 in the thigh. Then an intradermic challenge was performed at d90 in two injection sites in the back of the monkey.
Clinical features of the cutaneous reaction were evaluated once a day for each animal before the challenge and then 24 h, 48 h and 72 h after the challenge. Each injection site was monitored for the incidence, grade and duration of three parameters (erythema, thickening, nodules) and a cumulative clinical score of delayed-type hypersensitivity (DTH) comprising these three parameters was established for each group.

[4] = target: T2, IL-6Rα receptor (Homo sapiens, UniProt P08887); conditions: adults; cited from earlier work
T2 sequence (P08887 20-468): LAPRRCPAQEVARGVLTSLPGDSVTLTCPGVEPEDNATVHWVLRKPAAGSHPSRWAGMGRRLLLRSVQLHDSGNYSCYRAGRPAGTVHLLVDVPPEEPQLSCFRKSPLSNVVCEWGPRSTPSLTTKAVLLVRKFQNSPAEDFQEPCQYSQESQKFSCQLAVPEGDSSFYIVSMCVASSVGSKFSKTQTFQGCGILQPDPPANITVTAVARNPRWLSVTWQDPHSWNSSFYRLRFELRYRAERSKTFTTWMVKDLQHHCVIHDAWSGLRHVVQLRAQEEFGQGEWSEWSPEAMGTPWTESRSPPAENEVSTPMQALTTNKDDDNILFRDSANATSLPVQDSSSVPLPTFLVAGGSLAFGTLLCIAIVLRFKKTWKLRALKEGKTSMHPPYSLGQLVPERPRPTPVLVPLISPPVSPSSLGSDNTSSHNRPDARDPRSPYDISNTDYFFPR

T1 sequence (P05231 30-212): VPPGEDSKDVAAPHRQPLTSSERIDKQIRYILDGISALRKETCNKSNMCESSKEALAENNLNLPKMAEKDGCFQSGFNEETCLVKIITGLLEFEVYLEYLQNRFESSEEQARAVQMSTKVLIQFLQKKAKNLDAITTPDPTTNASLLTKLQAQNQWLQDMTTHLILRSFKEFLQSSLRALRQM

| Substance | neutralization of the biological activity of human IL-6 [1] | peak of anti-hIL-6 antibody titer kinetics ([2]; Cynomolgus monkeys immunized with hP2, in average) [days] | development of antibodies against hIL-6 (ELISA) ([2]; four Cynomolgus monkeys, 150 μg cyclized hP2 coupled to KLH in ISA51 i.m., FIG. 7) | DTH response (cumulative clinical score) [3] | clinical effectiveness in rheumatoid arthritis [4] |
| --- | --- | --- | --- | --- | --- |
| Acetyl+C78ESSKEALAENNLNLPK94C-Y-BDB (Ac-CESSKEALAENNLNLPKCY-{BDB}; disulfide 1-18 (inferred); also: coupled to KLH via BDB) [hP2, peptide derived from hIL-6 region 78-94] | neutralize the biological activity of the human IL-6 in a dose-dependent manner | ~60 | developed antibodies against hIL-6 | marked attenuation of the DTH response | – |
| Tocilizumab: humanized monoclonal antibody directed against the IL-6Rα receptor | – | – | – | – | clinically effective |
